The assay has as its target PA1698 protein on Pseudomonas aeruginosa PA103 strain cells (Pseudomonas aeruginosa (PA103 strain)). The assay is described as follows: whole cell ELISA on immobilised P. aeruginosa PA103, 50 ug/well. Background: ELISA stands for enzyme-linked immunosorbent assay.

“negative control IgG fraction purified from control rat sera obtained by administering only adjuvant (antibody)” displayed an absorbance at 450 nm of 0.084.
